Measured values as given in publication PMC11927444 (Journal for Immunotherapy of Cancer, 2025).

T1: Recombinant Syndecan-1 (2780-SD) (human, UniProt P18827 23-254)
T1 sequence (looked up): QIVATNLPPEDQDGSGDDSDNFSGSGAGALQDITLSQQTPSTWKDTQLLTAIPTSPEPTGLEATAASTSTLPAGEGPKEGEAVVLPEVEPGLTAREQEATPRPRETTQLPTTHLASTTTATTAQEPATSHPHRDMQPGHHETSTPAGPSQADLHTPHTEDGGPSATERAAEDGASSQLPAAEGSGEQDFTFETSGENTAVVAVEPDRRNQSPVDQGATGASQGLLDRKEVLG

B1: Biotinylated IL-34 (ligand, human, UniProt Q6ZMJ4 19-242, looked up)
chain: LGNEPLEMWPLTQNEECTVTGFLRDKLQYRSRLQYMKHYFPINYKISVPYEGVFRIANVTRLQRAQVSERELRYLWVLVSLSATESVQDVLLEGHPSWKYLQEVETLLLNVQQGLTDVEVSPKVESVLSLLNAPGPNLKLVRPKALLDNCFRVMELLYCSCCKQSSVLNWQDCEVPSPQSCSPEPSLQYAATQLYPPPPWSPSSPPHSTGSVRPVRAQGEGLLP
modifications: biotin (biotinylated, site not stated)
B2: Recombinant human TREM2 (9256-T2-50) (receptor, UniProt Q9NZC2 19-174, looked up)
chain: HNTTVFQGVAGQSLQVSCPYDSMKHWGRRKAWCRQLGEKGPCQRVVSTHNLWLLSFLRRWNGSTAITDDTLGGTLTITLRNLQPHDAGLYQCQSLHGSEADTLRKVLVEVLADPLDHRDAGDLWFPGESESFEDAHVEHSISRSLLEGEIPFPPTS

Key:
Test in all cases: ELISA
[1] = target: Recombinant human CSF-1R-Fc (329-MR-100) (human, UniProt P07333 20-517)
[2] = target: T1, Recombinant Syndecan-1 (2780-SD)
[3] = target: B1

Chain of Recombinant human CSF-1R-Fc (329-MR-100) (P07333 20-517): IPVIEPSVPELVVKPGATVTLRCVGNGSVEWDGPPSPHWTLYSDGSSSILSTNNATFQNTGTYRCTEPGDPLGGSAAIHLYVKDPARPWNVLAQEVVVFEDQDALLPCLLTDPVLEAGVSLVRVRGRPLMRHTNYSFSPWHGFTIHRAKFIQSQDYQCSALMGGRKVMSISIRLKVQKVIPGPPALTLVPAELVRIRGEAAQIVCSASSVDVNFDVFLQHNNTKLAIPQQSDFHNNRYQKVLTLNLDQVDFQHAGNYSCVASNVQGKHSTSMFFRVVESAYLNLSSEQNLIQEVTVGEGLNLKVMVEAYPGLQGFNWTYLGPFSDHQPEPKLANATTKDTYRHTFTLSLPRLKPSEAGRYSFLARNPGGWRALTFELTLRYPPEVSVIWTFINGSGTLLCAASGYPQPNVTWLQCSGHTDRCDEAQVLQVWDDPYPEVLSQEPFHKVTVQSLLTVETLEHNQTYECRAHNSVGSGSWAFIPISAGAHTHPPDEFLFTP

| Binder | binding result [1] | binding result [2] | binding result [3] |
| --- | --- | --- | --- |
| B1 | binds | binds | – |
| B2 | – | – | binds |
